# Assay results as given in publication PMC6260798 (Biochemistry, 2018).
# Like-named read-outs stand apart in the source and are kept apart here.
# T1: UreE (Helicobacter pylori, UniProt Q09064)
# T1 chain: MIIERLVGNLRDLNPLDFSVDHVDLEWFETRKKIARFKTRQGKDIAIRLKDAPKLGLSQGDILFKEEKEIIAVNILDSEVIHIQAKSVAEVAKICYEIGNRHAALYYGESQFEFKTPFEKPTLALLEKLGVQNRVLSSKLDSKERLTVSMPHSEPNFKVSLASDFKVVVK
# T2: Helicobacter pylori UreE homodimer (UreE2) (Helicobacter pylori, UniProt Q09064 1-170)
# T2 sequence: T1 chain
# B1: HypA (protein)
# chain: MHEYSVVSSLIALCEEHAKKNQAHKIERVVVGIGERSAMDKSLFVSAFETFREESLVCKDAILDIVDEKVELECKDCSHVFKPNALDYGVCEKCHSKNVIITQGNEMRLLSLEMLAE
# modifications: Ni,Zn-HypA
# B2: HypA (protein)
# chain: B1 chain
# modifications: apo,Zn-HypA, NHS640-labelled UreE2
# B3: Helicobacter pylori HypA (wild type; apo,Zn-HypA or Ni,Zn-HypA) (natural protein, UniProt P0A0U4 1-117, looked up)
# chain: B1 chain
# Assays:
# UreE [1] = biological target: T1, UreE; experiment: ITC
# UreE [2] = biological target: T1, UreE; experiment: fluorescence titration
# [3] = biological target: T2, Helicobacter pylori UreE homodimer …; experiment: SEC-MALS
# [4] = biological target: T2, Helicobacter pylori UreE homodimer …; experiment: ITC
# [5] = biological target: T2, Helicobacter pylori UreE homodimer …; experiment: ITC; remark: listed apart in the source
binder,measurement,setting,value
B1,Kd,UreE [1],~0.6 nM
B2,Kd,UreE [2],~2000 nM
B3,stoichiometry N,[3],1 HypA per UreE2
same,Kd,[4],1200 nM
same,stoichiometry N,[4],1.4 Sites
same,Kd,[5],900 nM
same,stoichiometry N,[5],1.4 Sites
